Biological target: the molecule itself
Test: crystal structure

B1: SonM, borosin α-N-methyltransferase (wild type) (enzyme, Shewanella oneidensis MR-1)
chain: MGSLVCVGTGLQLAGQISVLSRSYIEHADIVFSLLPDGFSQRWLTKLNPNVINLQQFYAQNGEVKNRRDTYEQMVNAILDAVRAGKKTVCALYGHPGVFACVSHMAITRAKAEGFSAKMEPGISAEACLWADLGIDPGNSGHQSFEASQFMFFNHVPDPTTHLLLWQIAIAGEHTLTQFHTSSDRLQILVEQLNQWYPLDHEVVIYEAANLPIQAPRIERLPLANLPQAHLMPISTLLIPPAKKLEYNYAILAKLGIGPEDLG
stoichiometry N: 2
